Experimental data taken from patent US8409833B2 (Hokko Chemical Industry Co., Ltd., priority 2003, dated 2013).

B1: C58 Atu4375 gene: recombinant scyllo-inositol dehydrogenase, Atu4375 gene product of Agrobacterium tumefaciens C58 ATCC33970, SEQ ID NO: 4 (protein)
chain: MSSATKKFDSRRIRLGMVGGGQGAFIGAVHRIAARLDDRYELVAGALSSDPARAAASATLLGIAPERSYASFEDMAATEAGREDGIEAVAIVTPNHLHFAPSKAFLEAGIHVICDKPVTATLEEAKALAGIVRASDSLFVLTHNYTGYAMLRQMREMIAEGAIGKLRHVQAEYAQDWLTEAVEKTGAKGAEWRTDPSRSGAGGAIGDIGTHAFNAAAFVTGEIPSSLYADLTSFVPGRQLDDSANILLRYDSGAKGMLWASQIAVGNENALSLRVYGDKGGLEWHHRVPDELWFTPYGEPKRLITRNGAGAGAAANRVSRVPSGHPEGYLEGFATIYREAADAIIAKREGETAAGEVIYPGMEDGLAGLAFIDAAVRSSQTSTWVGIDI
modifications: Agrobacterium tumefacience
B2: ydgJ gene: recombinant scyllo-inositol dehydrogenase, ydgJ gene product of Escherichia coli K12 ATCC10798, SEQ ID NO: 2 (protein, listed as Escherichia coli)
chain: MSDNIRVGLIGYGYASKTFHAPLIAGTPGQELAVISSSDETKVKADWPTVTVVSEPKHLFNDPNIDLIVIPTPNDTHFPLAKAALEAGKHVVVDKPFTVTLSQARELDALAKSLGRVLSVFHNRRWDSDFLTLKGLLAEGVLGEVAYFESHFDRFRPQVRDRWREQGGPGSGIWYDLAPHLLDQAITLFGLPVSMTVDLAQLRPGAQSTDYFHAILSYPQRRVILHGTMLAAAESARYIVHGSRGSYVKYGLDPQEERLKNGERLPQEDWGYDMRDGVLTRVEGEERVEETLLTVPGNYPAYYAAIRDALNGDGENPVPASQAIQVMELIELGIESAKHRATLCLA
B3: C58 Atu3234 gene: recombinant scyllo-inositol dehydrogenase, Atu3234 gene product of Agrobacterium tumefaciens C58 ATCC33970, SEQ ID NO: 6 (protein)
chain: MAIEGKTTDVANKRIRLGMVGGGSGAFIGGVHRMAARLDNRFDLVAGALSSTPEKSLASGRELGLDSERCYGSFEEMAEKEALREDGIEAVAIVTPNHVHYPAAKAFLERGIHVICDKPLTSNLEDAKKLKDVADKADALFILTHNYTGYPMVRHARELVEAGALGNIRLVQMEYPQDWLTEAVEQTGAKQAVWRTDPAQSGVGGSTGDIGTHAYNLGCFISGLEADELAADVHTFVEGRRLDDNAHVMMRFKPKGGKQPARGMLWCSQVAVGHENGLKIRLYGDKAGLEWTQADPNYLWFTKLGEPKQLITRGGAGAGAAAARVTRIPSGHPEGYLEAFATIYTEAAHAIEARRTGSALDKAVIYPTVDDGVKGVAFVTACIESGKKNGGWVKL
modifications: Agrobacterium tumefacience
B4: BG14057 gene: recombinant scyllo-inositol dehydrogenase, BG14057 gene product of Bacillus subtilis 168 ATCC23857, SEQ ID NO: 8 (protein, listed as Bacillus subtilis)
chain: MITLLKGRRKVDTIKVGILGYGLSGSVFHGPLLDVLDEYQISKIMTSRTEEVKRDFPDAEVVHELEEITNDPAIELVIVTTPSGLHYEHTMACIQAGKHVVMEKPMTATAEEGETLKRAADEKGVLLSVYHNRRWDNDFLTIKKLISEGSLEDINTYQVSYNRYRPEVQARWREKEGTATGTLYDLGSHIIDQTLHLFGMPKAVTANVMAQRENAETVDYFHLTLDYGKLQAILYGGSIVPANGPRYQIHGKDSSFIKYGIDGQEDALRAGRKPEDDSWGADVPEFYGKLTTIRGSDKKTETIPSVNGSYLTYYRKIAESIREGAALPVTAEEGINVIRIIEAAMESSKEKRTIMLEH

Assay: Km values of scyllo-inositol dehydrogenase for scyllo-inosose (reciprocal plot)
Format: biochemical
Settings: NADPH, pH 8.0, 36° C.
Protocol: The determination is carried out such that the Km value is calculated after reciprocal plot according to the general method.
After the reaction, […] of water was immediately added thereto, and the absorbance at 340 nm was measured. From the blank value of a test solution prepared by using water instead of the enzyme solution, the decrease in the absorbance at 340 nm was measured. The enzyme solution was diluted as required. The Km values were calculated by the reciprocal plot.

Molecule | Km
B1 | 9.2 mM
B2 | 3.9 mM
B3 | 2.6 mM
B4 | 3.5 mM

Assay: Enzyme reaction product of scyllo-inosose reduction measured by HPLC
Format: biochemical
Settings: 10 mg scyllo-inosose, 40 mg NADPH, 10 U enzyme, 36° C., 4 hours; myo-inositol not detected
Protocol: Meanwhile, the enzyme reaction product was measured as follows: 10 mg of scyllo-inosose, 40 mg of NADPH, and 10 U of the enzyme were allowed to react in 1.0 ml of 100 mM Tris buffer (pH 8.0) at 36° C. for 4 hours, and a heat treatment was performed at 80° C. for 10 min, followed by cooling. Then, 100 μl of a strong base cation exchange resin, 100 μl of a strong acid anion exchange resin, and 10 mg of activated carbon were added, and the mixture was stirred and centrifuged. Then, the supernatant was diluted 2-fold, and measurement was performed by HPLC (Shodex Asahipak NH2P-50 4E Φ 4.6×250 mm: Shodex) using an RI detector under the condition of a column temperature of 40° C. and a mobile phase flow rate of 1.5 ml (80% acetonitrile). […] Meanwhile, the sequence of the ydgJ gene is shown in SEQ ID NO: 1, and the amino acid sequence corresponding thereto is shown in SEQ ID NO: 2.
Meanwhile, enzyme reaction product was measured as follows: 10 mg of scyllo-inosose, 40 mg of NADPH, and 10 U of the enzyme were allowed to react in 1.0 ml of 100 mM Tris buffer (pH 8.0) at 36° C. for 4 hours, and a heat treatment was performed at 80° C. for 10 min, followed by cooling. Then, 100 μl of a strong base cation exchange resin, 100 μl of a strong acid anion exchange resin, and 10 mg of activated carbon were added, and the mixture was stirred and centrifuged. Then, the supernatant was diluted 2-fold, and measurement was performed by HPLC (Shodex Asahipak NH2P-50 4E Φ 4.6×250 mm: Shodex) using an RI detector under conditions of a column temperature of 40° C. and a mobile phase flow rate of 1.5 ml (80% acetonitrile).

Molecule | share of scyllo-inositol in the product of scyllo-inosose reduction
B1 | 100%
B2 | 100%
B3 | 100%
B4 | 100%

Same assay, conditions: SIS: scyllo-inosose, SI: scyllo-inositol

Molecule | Reduction reaction product
B1 | Only SIS → SI
B2 | Only SIS → SI
B3 | Only SIS → SI
B4 | Only SIS → SI

Assay: Substrate specificity of scyllo-inositol dehydrogenase (relative activity of oxidation, absorbance at 545 nm)
Format: biochemical
Settings: relative to reactivity to scyllo-inositol, NADP^+, pH 8.0, 25° C.
Protocol: Examples of an inositol isomer include scyllo-inositol (SI), myo-inositol (MI), D-chiro-inositol (DCI), L-chiro-inositol (LCI), epi-inositol (EI), muco-inositol (MuI), allo-inositol (AI), and neo-inositol (NI).
The inositol isomers include scyllo-inositol (SI), myo-inositol (MI), D-chiro-inositol (DCI), L-chiro-inositol (LCI), epi-inositol (EI), muco-inositol (MuI), allo-inositol (AI), and neo-inositol (NI).
The reaction rate was calculated from the absorbance increments at the respective times.

Molecule | Substrate specific Relative activity (20 to 70%) | Substrate specific Relative activity (70% or more) | Substrate specific Relative activity (less than 20%)
B1 | LCI, MuI | SI, MI, DCI, EI | AI, NI
B2 | LCI, EI, MuI | SI, MI, DCI | AI, NI
B3 | MuI | SI, MI, DCI, EI, LCI | AI, NI
B4 | DCI, EI, AI, NI | SI, MI | LCI, MuI

Assay: Optimum pH of scyllo-inositol dehydrogenase
Format: biochemical
Settings: 200 mM phosphate buffer (pH 5.0 to 9.0); 90% or more of the maximum activity
Protocol: The optimum pH can be confirmed by: mixing 5 μl of a reaction solution (200 mM […] of pH 5.0 to 9.0 containing 2% of NADPH, and 1% of scyllo-inosose) and 5 μl of an enzyme solution; allowing the mixture to react at 36° C. for 30 minutes; adding 500 μl of water immediately after the completion of the reaction; determining the absorbance at 340 nm; and determining a decrease in the absorbance at 340 nm with respect to a blank value of a test solution containing water instead of the enzyme solution. The term “optimum pH” means a pH at which the enzyme has 90% or more of the maximum activity. The enzyme of the present invention can be divided depending on, for example, a range of the optimum pH into groups each having: an optimum pH in an acidic region (optimum pH is pH of 5.5 to 6.5); an optimum pH in a neutral region (optimum pH is pH of 6.5 to 7.5 or 6.5 to 8.5); and an optimum pH in an alkaline region (optimum pH is pH of 7.0 to 8.5 or 7.5 to 9.0).
The optimum pH of the enzymes of the present invention was determined by: mixing 5 μl of a reaction solution (200 mM phosphate buffer (pH 5.0 to 9.0), 2% of NADPH, and 1% of scyllo-inosose) with 5 μl of an enzyme solution; and allowing the mixture to react at 36° C. for 30 min. After the reaction, 500 μl of water was immediately added thereto, and the absorbance at 340 nm was measured. From the blank value of a test solution prepared by using water instead of the enzyme solution, the decrease in the absorbance at 340 nm was measured. The enzyme solution was diluted as required.

Molecule | Optimum pH
B1 | pH 6.5-8.5
B2 | pH 7.5-9.0
B3 | pH 7.0-8.5
B4 | pH 7.0-8.5

Assay: Effects of heavy metal on scyllo-inositol dehydrogenase
Format: biochemical
Settings: 2 mM heavy metal in reaction solution; no addition group = 100%
Protocol: Effects by the heavy metals can be confirmed by: mixing 5 μl of a reaction solution (200 mM Tris buffer of pH 8.0 containing 2% of NADPH, 1% of scyllo-inosose, and 2 mM metal salt) and 5 μl of an enzyme solution; allowing the mixture to react at 36° C. for 30 minutes; adding 500 μl of water immediately after the completion of the reaction; determining the absorbance at 340 nm; and determining a decrease in the absorbance at 340 nm with respect to a blank value of a test solution containing water instead of the enzyme solution. The term “activated” means the case where the enzymatic activity of a fraction added with 1 mM of a heavy metal is 105% or more, preferably 120% or more, with respect to the enzymatic activity of a fraction added with no heavy metal as 100%. On the other hand, the term “inhibited” means the case where the enzymatic activity of the fraction added with 1 mM of a heavy metal is 95% or less, preferably 70% or less, with respect to the enzymatic activity of the fraction added with no heavy metal as 100%.
The effects of heavy metal on the enzymes of the present invention were determined by: mixing 5 μl of a reaction solution (200 mM Tris buffer (pH 8.0), 2% of NADPH, 1% of scyllo-inosose, and 2 mM of a heavy metal) with 5 μl of an enzyme solution; and allowing the mixture to react at 36° C. for 30 min. After the reaction, 500 μl of water was immediately added thereto, and the absorbance at 340 nm was measured. From the blank value of a test solution prepared by using water instead of the enzyme solution, the decrease in the absorbance at 340 nm was measured. The enzyme solution was diluted as required. CaCl2, CoCl2, ZnSO4, MgSO4, SnCl2, NiCl2, and MnSO4 were used as metallic salts. The activity of the no addition group was defined as 100%, and the relative activities were compared. […] Most of the enzymes were inhibited in the presence of Zn^2+ ion, in contrast, the enzyme derived from Bacillus subtilis 168 was activated in the presence of Zn^2+ ion.

Molecule | Heavy metal effects: activation | Heavy metal effects: strong inhibition
B1 | Co, Mn | Sn, Zn
B2 | Co | Sn, Zn
B3 | Co, Mn, Ca | Sn, Zn
B4 | Co, Mn, Zn | Sn

Same assay, conditions: 2 mM heavy metal in reaction solution; no addition group = 100%; listed as enzyme derived from Bacillus subtilis 168

Molecule | Heavy metal effects: activation
B4 | Zn^2+ ion
